{"source": "paper PMC4548480", "about": "“Structures of the Ultra-High-Affinity Protein–Protein Complexes of Pyocins S2 and AP41 and Their Cognate Immunity Proteins from Pseudomonas aeruginosa” (Journal of Molecular Biology, 2015)", "target": "T1, pyocin S2 DNase domain (Pseudomonas aeruginosa, UniProt Q06584 556-688)", "T1 construct": "pyocin S2, Pseudomonas aeruginosa, residues 556-688 found in the crystal after crystallisation of the intact PyoS2-ImS2 complex with chymotrypsin; The fragment of PyoS2 in the crystal was unknown to the authors; The limits 556-688 are those found in the solved structure; also called PyoS2 DNase; PyoS2; source: crystallised in the presence of chymotrypsin", "T1 sequence": "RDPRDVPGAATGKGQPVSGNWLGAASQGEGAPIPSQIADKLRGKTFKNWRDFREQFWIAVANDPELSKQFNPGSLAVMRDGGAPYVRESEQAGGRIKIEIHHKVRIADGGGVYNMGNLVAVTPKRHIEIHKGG", "assay": "crystal structure; intact PyoS2-ImS2 complex crystallised with chymotrypsin (1:100); 0.2 M sodium bromide, 20% (w/v) PEG 3350, 0.1 M Bis-tris propane pH 6.5; 1.8 Å; four copies of the complex in the asymmetric unit", "conditions": "both partners purified"}
{"binder": "pyocin S2 immunity protein ImS2 (natural protein, immunity protein of pyocin S2 (ImS2), Pseudomonas aeruginosa, full length; the entirety of the immunity protein was present in the crystal) MKSKISEYTEKEFLEFVKDIYTNNKKKFPTEESHIQAVLEFKKLTEHPSGSDLLYYPNENREDSPAGVVKEVKEWRASKGLPGFKAG", "values": [{"measurement": "binding result", "result": "binds"}]}
